Results: the nanobody polyreactivity screen of Harvey et al. (2022)

Test: yeast display, Sf9 membrane polyspecificity reagent, FACS + sequencing; frameworks hold sequencing errors
Method in brief: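 Using colony PCR, genes from sorted yeast display clones were amplified, then sequenced on MiSeq at 2 × 250 and filtered by CDR length. The clones had been stained with 10% biotinylated, detergent-solubilized Sf9 membrane reagent for 1 hour at 4 °C and sorted by FACS into low and high (top ~1%) gates on anti-HA and streptavidin fluorescence. Polyreactivity labels come from the gate of origin.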

Row | Sequence | polyreactivity (PSR sort gate)
1 | QVQLVESGGGLVQAGGSLRLSCASSGSTFYHYAMVWYRQAPGKERELVAAISWSGGSTYYADSVKGRFTISRDNAKNTVYLQMNSLKPEDTAVYYCAARGRARQRTSFEYWGQGTQVTVSS | high polyreactivity
2 | QVQLVESGGGLVQAGGSLRLSCAASGSNFQNYAMGLYIQAPGKERELVAAISSSGTGTSYADSVKGRFTISRDNAKNTVYLQMNSLKPEDTAVYYCAADYLDYADSAYYYWGQCTQVTVSS | low polyreactivity
3 | QVQLVESGGRLVQAGGSLRLSCAASGIIFTNYAMGWYRQAPGKERELVAAISSSSGTTYYADSVKGRFTISRDNAKNTVYLQMNSLKPEDTAVYYCAARPVYSTGYPRGRYGYWGQGTQVTVSS | high polyreactivity
4 | QVQLVESGGGLVQAGGSLRLSCASSGFTFYSYDMGWYRQAPGKERELVAAITWYGGSTYYADSVKGRFTISRDNAKNTVYLQMKSLKQEDTAVYYCAAELFPLQHFWVAYATRRYDYWGQCTQVTVSS | low polyreactivity
5 | QVQLVESGGGLVQAGGTLRLSCASSGRIFYHYAMGWDRQAPGKERELVAAISTHTGTTYYADSVKGRFTISRDNAKNTVYLQMNSLKPEDTAVYYCAKRSRYGYGKSYDYWGQGTQVTVST | high polyreactivity
6 | QVQLVESGGGLVQEGGSLRLSCAASGLTFLNNAMGWYRPAPGKERELVAAISDGGSTNYADSVKGRFTISRDNAKNTVYLQMNSMKRDDTAVYYCAAVYTSASYGSWGQGTQVTVSS | low polyreactivity
7 | QVQLVESGGGLVQAGGSLRLSCAASGSIFYSNAMGWYRQAPGKERELVAAINWRGGSTYYADSVKGRFTISRDYAKNTVYLQMNSLKPEDTAVYYCNADSYDEIKYGYWGQGTQVTVSS | low polyreactivity
8 | QVQLVESGGGLVQAGGSLRLSCDASGSTFVGNSMGWYRPAPGKERELVAALTQSGGNTFYADSVKGRFTISRDYAKNTVYLQINSLKPEDTAVYYCAATVSNGVKLDGPARVDLDYWGQGTQVTVSS | low polyreactivity
9 | QVQLVESGGGLVQAGGSLRLSCAASGRTFRGNDMGWYRQAPGKEWELVATITRNGGSTRYADSVKGRFTISRDNAKNTVYLQMNSLKPEDTAVYYCNARSRYFGYDYWGQGTQVTVSS | high polyreactivity
10 | QVQLVESGGGLVQAGGSLRLSCAASGSIFGYNVMGWYRQAPGKERDLVAAITYSGGSTYYADSVKGRFTISRDNAKNTVYLQMNSLKPEDTAVYYCAKVTGRRFPAYGYDHWGQGTQVTVSS | high polyreactivity
11 | QDQLVESGGVLVQAGGSLRLSCAASGSIFGYYAMGWYRQAPGKERELVARISYSGGTTYYADSVKGRFTNSRDNAKNTVYLQMNSQIPEDTAVYYCNARIPYSWRYGYWGQGTQVTVSS | high polyreactivity
12 | QVQLVESGGGLVQAGGSLRLSCAASGRIFYNYAMGWSRQAPGKERELVAAISGSGGSTYYADSVKGRFTISRDNAKNTVYLQMNSLKPEDTAVYYCSTSGPQYYSRNFDYWGQGTQVTVSS | low polyreactivity
13 | QVQLVESGGGLVQAGGSLRLSCAASGLTFYYYAMGWYRQAPGKERELVARISSGTSTYYADSVKGRFTISRDNAKNTVYLQMNSLKPEDTAVYFCNARRKLGSTHGPWGGLVYWGQGTQVTVSS | low polyreactivity
14 | QVQLVESGGGLLQAGGSLRLSCAASGITFERNGMGWYRQAPGKERELVAAIRSGGSTYYADSVKGRFTISRDNAKNTVYLQMNTLKPEDTGVYYCAAVTQGGYTYLGDYWGQGTQVTVSS | low polyreactivity
15 | QVQLVESGGGLVQAGGSLRLSCAASGFIFSPNAMGWYRQAPGKEREFVAAIRYSGTSTSYADSVKGRFTISRDNAKNTVYLQMNSLKPEDTAVYYCAAGRSNSYSPRRRVTYGYNYWGQGTQVTVSS | high polyreactivity
16 | QVQLVESGGGLVQAGGSLRLSCGAAGSIFAPYALGWYRQAPGKERELVAAISWTGGRTYYADSVKGRFTISRDNAKNTVYLQRNSLKPEDTAVYYCAAAYYGTRPYGYWGQGSQVTVSS | high polyreactivity
17 | QVQLVESGGGLVQAGGSLRLSCAASGSTFYIYVMGWYRQAPGKERELVATITWGGVSTYYADSVKGRFTISRDNAKNTVYLQMNSLKTEDTAVYYCATRGKSHGQQFNYWGQGTQVTVSS | high polyreactivity
18 | QVQLVESGGGLVQAGGSLSLSCAASGITFVWYALGWYRQAPGTERELVAAISRGGSTYYADSVKGRFTISRDNAKNTVYLQMNSLKPEDTAVYYCNAESAARSTVQQARGYYWGQGTQVTVSS | high polyreactivity
19 | QVQLVESGGGLVQAGGSLRLSCAASGSTFDSYAMGWYRQAPGKERELVAALSYNGSSTDYADSVKGRFTISRDNAKNTVDEQMNSLKPEDTAVYYCAAAPGFSAGHHDYWGQGTQVTVSS | low polyreactivity
20 | QVQLVESGGGLVQAGGSLRLSCAASGSTFTRYAMGWYRPAPGKERELVAAISLSGGDTYYADSVKGRFTISRDNAKNTVYLQMNSLKPEDTAVYYCAARWGYRGYSYEYWGQGTQVTVSS | high polyreactivity
21 | QVQLVESGGGLVQAGGSLRLSCAASGSTFVFYAMGWSREAPGKERELVAAITISGDITYYADSVKGRFTISRDNAKNTVYLQMNSLKPEDTAVYYWAVDGPIPDLHEYWGQGTQVTVSS | low polyreactivity
22 | QVKLVESGGGLVQAGGSLRLSCAASGFTFSGYDMGWYRQAPGKERELVAGISSGGVSTTYADSVKGRFTISRDNAKNTVYLQMNSLIPEDTAVYYCNAEWTSFDWGQGTQVTVSS | low polyreactivity
